# Test results taken from patent US7109170B2, “Region of factor IXa protease domain that interacts with factor VIIIa and methods therefor” (Saint Louis University, priority 1999, dated 2006).
# Legend:
# factor VIIIa [1] = target: T1, factor VIIIa (Homo sapiens, UniProt P00451); assay: inhibition of Xa generation by active site-blocked (DEGR) IXa proteins, presence of phospholipid (Kd,app for VIIIa); assay type: biochemical
# T1 construct: purchased Dr. Leon Hoyer (American Red Cross, Rockville, Md.)
# T1 sequence (P00451 20-759 limits assumed): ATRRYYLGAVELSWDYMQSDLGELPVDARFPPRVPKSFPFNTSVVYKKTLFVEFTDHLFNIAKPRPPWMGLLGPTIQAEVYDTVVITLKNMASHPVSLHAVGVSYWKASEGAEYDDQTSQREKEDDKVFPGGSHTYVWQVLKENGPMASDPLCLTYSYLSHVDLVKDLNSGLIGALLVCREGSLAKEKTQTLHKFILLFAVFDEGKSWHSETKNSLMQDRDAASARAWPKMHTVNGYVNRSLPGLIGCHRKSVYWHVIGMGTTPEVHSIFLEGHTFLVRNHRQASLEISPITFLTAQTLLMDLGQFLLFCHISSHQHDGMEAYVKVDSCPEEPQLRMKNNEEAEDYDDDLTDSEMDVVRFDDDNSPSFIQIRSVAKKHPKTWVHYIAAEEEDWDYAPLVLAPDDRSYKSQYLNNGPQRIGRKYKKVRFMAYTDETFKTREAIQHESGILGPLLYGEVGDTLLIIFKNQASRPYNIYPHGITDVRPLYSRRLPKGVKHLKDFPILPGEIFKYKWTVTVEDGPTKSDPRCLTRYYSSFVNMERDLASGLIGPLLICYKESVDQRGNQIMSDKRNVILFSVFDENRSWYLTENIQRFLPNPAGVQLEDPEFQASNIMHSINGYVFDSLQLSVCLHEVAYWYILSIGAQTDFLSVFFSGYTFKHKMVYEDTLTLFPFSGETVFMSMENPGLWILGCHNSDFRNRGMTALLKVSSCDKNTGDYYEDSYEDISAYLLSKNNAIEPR
# T1 sequence (P00451 1668-2351 limits assumed): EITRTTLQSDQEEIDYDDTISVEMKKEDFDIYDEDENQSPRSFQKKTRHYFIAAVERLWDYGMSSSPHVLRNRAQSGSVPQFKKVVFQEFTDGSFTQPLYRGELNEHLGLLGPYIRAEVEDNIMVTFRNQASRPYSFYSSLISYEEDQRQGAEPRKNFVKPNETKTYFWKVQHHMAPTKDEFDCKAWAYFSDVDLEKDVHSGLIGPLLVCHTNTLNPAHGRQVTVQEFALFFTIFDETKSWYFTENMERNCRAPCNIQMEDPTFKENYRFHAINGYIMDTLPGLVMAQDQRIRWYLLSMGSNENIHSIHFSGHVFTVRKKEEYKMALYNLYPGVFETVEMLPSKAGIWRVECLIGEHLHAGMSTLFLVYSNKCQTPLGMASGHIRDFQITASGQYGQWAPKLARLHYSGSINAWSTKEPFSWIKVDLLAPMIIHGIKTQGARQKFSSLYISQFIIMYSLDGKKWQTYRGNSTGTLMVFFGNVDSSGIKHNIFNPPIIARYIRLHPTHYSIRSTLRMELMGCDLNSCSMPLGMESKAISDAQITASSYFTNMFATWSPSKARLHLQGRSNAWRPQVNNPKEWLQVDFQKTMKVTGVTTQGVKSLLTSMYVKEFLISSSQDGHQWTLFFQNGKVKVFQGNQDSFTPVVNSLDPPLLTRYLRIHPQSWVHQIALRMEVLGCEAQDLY
# Description: (§1) Apparent Kds of factor VIIIa binding to various active site-blocked factor IXa proteins were determined from inhibition experiments as detailed in Mathur et al., 1997, supra. […] Reactions were carried out for 2 min and the rates of factor X activation were measured as outlined above.
# (§2) Various DEGR-ck-inhibited factor IXa proteins were prepared for these experiments as follows. IXNP, IXWT, and each mutant factor IX at 200 μg/ml was activated by factor XIa (2 μg/ml) for 90 min. in TBS, pH 7.4 (0.05 M Tris, 0.15 M NaCl, pH 7.4) containing 5 mM Ca^2+.
# (§3) Enzymol. 74, 481–508 given below:
# (§4) [formula] where y is the rate of Xa formation in the presence of a given concentration of DEGR-IXa protein represented by x, a is the maximum rate of Xa formation in the absence of DEGR-IXa, and s is the slope factor. Each point was weighted equally and the data were fitted to Equation 1 using the nonlinear regression analysis program obtained from Erithacus Software (GraFit). […] To obtain the Kd,app values for the interaction of DEGR-IXa proteins with factor VIIIa, the following equation was used, as described by Cheng and Prusoff, 1973, Biochem. Pharmacol. 22, 3099–3108 and further discussed by Craig, 1993, Trends Pharmacol. Sci. 6, 68–71.
# factor VIIIa [2] = target: T1, factor VIIIa; assay: inhibition of Xa generation by active site-blocked (DEGR) IXa proteins, absence of phospholipid (Kd,app for VIIIa); assay type: biochemical
# Description: as §1, §2, §3, §4
substance,measurement,setting,value
IXaV331A: activated factor IX mutant V331A,Kd,"factor VIIIa [1]; active site-blocked (DEGR) IXa proteins, 10 μM phospholipid, read-out: Kd, app for interaction with factor VIIIa, PL-plus system",0.61 ± 0.08 nM
same,fold-reduction in affinity for factor VIIIa compared with DEGR-IXaWT,factor VIIIa [1]; presence of phospholipid,11 fold
same,fold-reduction in affinity for factor VIIIa compared with DEGR-IXaWT,factor VIIIa [2]; absence of phospholipid,7 fold
same,Kd,"factor VIIIa [2]; active site-blocked (DEGR) IXa proteins, no phospholipid, read-out: Kd, app for interaction with factor VIIIa, PL-minus system",1350 ± 310 nM
